In paper PMC6265484, “Homodimerization regulates an endothelial specific signature of the SOX18 transcription factor” (Nucleic Acids Research, 2018):

What was measured:
Assay in all cases: single-molecule two-colour coincidence fluorescence spectroscopy; GFP- and Cherry-tagged proteins made in LTE, diluted to about 100 pM, confocal detection with 488 and 561 nm lasers, room temperature; coincidence ratio C = mCherry/(GFP + mCherry)
[1] = biological target: human MEF2C (human, UniProt Q06413 1-473); conditions: partners not purified
[2] = biological target: human RBPJ (human, UniProt Q06330 1-500); conditions: partners not purified
[3] = biological target: T1, RXRA (UniProt P19793 1-462); conditions: partners not purified
T1 sequence (looked up): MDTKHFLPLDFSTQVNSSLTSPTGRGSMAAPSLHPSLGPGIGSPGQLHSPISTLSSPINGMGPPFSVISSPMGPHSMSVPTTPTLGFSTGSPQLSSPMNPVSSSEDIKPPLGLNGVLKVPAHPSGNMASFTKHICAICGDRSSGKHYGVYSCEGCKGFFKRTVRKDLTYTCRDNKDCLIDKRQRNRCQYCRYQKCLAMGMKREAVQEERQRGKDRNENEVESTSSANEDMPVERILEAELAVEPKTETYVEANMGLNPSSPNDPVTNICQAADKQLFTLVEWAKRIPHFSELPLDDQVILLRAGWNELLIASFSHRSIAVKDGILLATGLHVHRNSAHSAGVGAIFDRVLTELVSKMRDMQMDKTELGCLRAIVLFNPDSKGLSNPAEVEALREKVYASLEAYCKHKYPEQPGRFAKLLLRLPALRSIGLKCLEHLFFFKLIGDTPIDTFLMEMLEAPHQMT

[4] = biological target: the molecule itself

human RBPJ, sequence (Q06330 whole entry): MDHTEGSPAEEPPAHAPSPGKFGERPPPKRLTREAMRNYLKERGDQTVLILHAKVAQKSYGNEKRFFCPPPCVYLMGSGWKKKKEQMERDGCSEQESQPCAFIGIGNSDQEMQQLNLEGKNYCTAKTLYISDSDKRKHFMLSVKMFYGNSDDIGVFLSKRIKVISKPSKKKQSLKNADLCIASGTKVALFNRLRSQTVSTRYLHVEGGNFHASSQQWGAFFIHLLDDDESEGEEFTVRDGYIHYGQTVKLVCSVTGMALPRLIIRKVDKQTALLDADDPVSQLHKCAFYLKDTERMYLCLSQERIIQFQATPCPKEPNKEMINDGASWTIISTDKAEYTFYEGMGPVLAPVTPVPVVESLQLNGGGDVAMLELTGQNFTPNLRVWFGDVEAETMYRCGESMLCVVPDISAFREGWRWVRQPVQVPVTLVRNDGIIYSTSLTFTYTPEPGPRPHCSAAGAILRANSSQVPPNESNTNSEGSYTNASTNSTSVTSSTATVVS
human MEF2C, sequence (Q06413 whole entry): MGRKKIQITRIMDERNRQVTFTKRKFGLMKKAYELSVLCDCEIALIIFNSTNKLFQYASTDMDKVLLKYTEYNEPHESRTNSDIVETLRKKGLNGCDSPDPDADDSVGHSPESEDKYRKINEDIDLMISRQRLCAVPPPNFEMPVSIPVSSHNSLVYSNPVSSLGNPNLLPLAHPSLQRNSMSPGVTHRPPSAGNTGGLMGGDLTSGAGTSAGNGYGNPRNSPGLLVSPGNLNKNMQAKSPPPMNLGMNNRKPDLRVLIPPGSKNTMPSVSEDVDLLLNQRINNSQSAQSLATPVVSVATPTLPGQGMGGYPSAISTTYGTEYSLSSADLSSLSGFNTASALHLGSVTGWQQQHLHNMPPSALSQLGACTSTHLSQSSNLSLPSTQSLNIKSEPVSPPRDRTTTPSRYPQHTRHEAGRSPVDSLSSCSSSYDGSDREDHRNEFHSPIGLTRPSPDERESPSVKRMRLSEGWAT

B1: full-length human SOX18 (natural protein, UniProt P35713 1-384, looked up)
chain: MQRSPPGYGAQDDPPARRDCAWAPGHGAAADTRGLAAGPAALAAPAAPASPPSPQRSPPRSPEPGRYGLSPAGRGERQAADESRIRRPMNAFMVWAKDERKRLAQQNPDLHNAVLSKMLGKAWKELNAAEKRPFVEEAERLRVQHLRDHPNYKYRPRRKKQARKARRLEPGLLLPGLAPPQPPPEPFPAASGSARAFRELPPLGAEFDGLGLPTPERSPLDGLEPGEAAFFPPPAAPEDCALRPFRAPYAPTELSRDPGGCYGAPLAEALRTAPPAAPLAGLYYGTLGTPGPYPGPLSPPPEAPPLESAEPLGPAADLWADVDLTEFDQYLNCSRTRPDAPGLPYHVALAKLGPRAMSCPEESSLISALSDASSAVYYSACISG
[1]
  stoichiometry N: 2
[2]
  stoichiometry N: 2
[3]
  stoichiometry N: 1
[4]
  stoichiometry N: 2
